Data on seven molecules can be found in patent US20240174744A1 (SCIRHOM, published 2024).

T1: hiR2-FL-L539A-T7 (human iRhom2 full length L539A, 3 x T7 tag) (human, UniProt Q6PJF5 1-856)
T1 sequence: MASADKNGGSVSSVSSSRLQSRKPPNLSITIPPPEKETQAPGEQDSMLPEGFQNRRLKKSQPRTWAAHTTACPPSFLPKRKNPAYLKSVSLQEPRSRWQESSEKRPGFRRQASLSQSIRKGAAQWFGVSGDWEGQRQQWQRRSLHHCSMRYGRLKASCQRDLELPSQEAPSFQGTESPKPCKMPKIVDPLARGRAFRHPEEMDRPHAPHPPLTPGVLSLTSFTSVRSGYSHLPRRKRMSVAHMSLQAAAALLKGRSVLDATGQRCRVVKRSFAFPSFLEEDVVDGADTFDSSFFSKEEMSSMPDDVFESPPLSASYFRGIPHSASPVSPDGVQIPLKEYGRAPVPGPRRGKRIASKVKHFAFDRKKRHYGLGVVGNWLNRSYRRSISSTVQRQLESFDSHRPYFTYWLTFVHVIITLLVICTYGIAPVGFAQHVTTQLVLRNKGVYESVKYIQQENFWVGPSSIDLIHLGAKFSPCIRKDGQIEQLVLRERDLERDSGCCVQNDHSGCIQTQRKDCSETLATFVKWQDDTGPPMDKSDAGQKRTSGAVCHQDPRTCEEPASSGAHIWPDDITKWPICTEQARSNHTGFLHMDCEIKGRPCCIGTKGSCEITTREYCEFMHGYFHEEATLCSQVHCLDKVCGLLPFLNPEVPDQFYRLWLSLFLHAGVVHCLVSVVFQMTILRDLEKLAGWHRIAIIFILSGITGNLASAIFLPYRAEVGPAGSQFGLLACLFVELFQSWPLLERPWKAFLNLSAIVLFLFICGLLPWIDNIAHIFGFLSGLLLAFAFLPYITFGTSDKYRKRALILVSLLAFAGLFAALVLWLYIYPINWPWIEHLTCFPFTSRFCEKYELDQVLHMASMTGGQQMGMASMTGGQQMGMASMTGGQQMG

B1: antibody 3 (antibody, V domains shown)
VH: QVTLKESGPGILQPSQTLSLTCSFSGFSLTTFAMGIGWVRQPSGKGLEWLAHIWWDGEKYNNPVLKSRLTISKDTSKNQVFLRIANVDTPDTATYYCARISSIYYIIDNWGQGTSVTVSS
VL: DIVLTQSPATLSVTPGHSVSLSCRASQSISNNLHWYQKKSHESPRLLIKYVSQSISGIPSRFSGSGSGTDFTLSINSVETEDFGMYFCQQSYNWPLTFGAGTKLELK
notes: Mouse IgG, kappa light chain; also called clone #3; purified antibody 3
B2: antibody 34 (antibody, V domains shown)
VH: QVTLKESGPGILQPSQTLSLTCSFSGFSLSTFSLGVGWIRQSSGKGLEWLAHIWWDDEKYYNPALKSRLTISKDTSKNQVFLKIANVDAADTATYYCARAYYSKSYYALDYWGQGTSVTVSS
VL: DIQMTQSPSSLSASLGERVSLTCRASQEISGYLSWLQQKPDGTIKRLIYAASTLDSGVPKRFSGSRSGSDYSLAISSLESEDFADYYCLQYANFPFTFGSGTKLEIK
notes: Mouse IgG, kappa light chain; also called clone #34; m34
B3: antibody 43 (antibody, V domains shown)
VH: QVALKESGPGILQPSQTLSLTCSFSGFSLSTFGMGVGWIRQSSGKGLEWLANIWWDDDKYYNPALKSRLTISKDASKNQAFLKIANVDTADTATYYCARIGNYGSNYWYFDVWGTGTTVTVSS
VL: QIVLTQSPAIMSASPGERVTMTCSANSRISYMYWYQQKPGSSPRLLIYDTSNLASGVPVRFSGSGSGTSYSLTISRMEAEDAATYNCQQWSSYPLTFGAGTKLELK
notes: Mouse IgG, kappa light chain; also called clone #43
B4: antibody 5 (antibody, V domains shown)
VH: QVTLKESGPGILQPSQTLSLTCSFSGFSLSTFGMGVGWIRQPSGKGLEWLAHIWWDDEKYYNSALKSRLTISKATSKNQAFLKIANVDTADTATYYCARISNYGSNYWYFNVWGTGTTVTVSS
VL: QVVLTQSPALMSASPGEKVTMTCSAGSSVSCMYWYQQKPGSSPRVLIYDTSNLASGVPARFTGSGSGTSYSLTISRMEAEDAASYYCQQWNSYPLTFGAGTKLELK
notes: Mouse IgG, kappa light chain; also called clone #5; purified antibody 5
B5: antibody 42 (antibody, V domains shown)
VH: QVTLKESGPGILQPSQTLSLTCSLSGFSLSTFGRGVGWIRQPSGKGLEWLAHIWWDDEKYYNPALKSRLTISKDTSKNQVFLRIANVDTADTATYYCARIQNYGSNYWYFDVWGTGTTVTVSS
VL: LIVLTQSPAIMSASPGEKVTMTCGATSRISYMFWYQQKPGSSPRVLIYDTSNLASGVPVRFSGSGSGTSYSLTISRVEAEDVATYYCQQWNSYPLTFGAGTKLELK
notes: Mouse IgG, kappa light chain; also called clone #42; m42
B6: antibody 44 (antibody, V domains shown)
VH: QVTLKESGPGILQPSQTLSLTCSFSGFSLSTFGMGVGWIRQPSEKGLEWLAHIWWDDDKYYNPALKSRLTISKDTSKNQIFLKITNVDTAETATYYCSRIGNYGSNYWYFDVWGTGTTVTVSS
VL: QIVLTQSPAVMSASPGEKVTMTCTASSSVYYMYWYQQTPGSSPRLLIYDTSNLASGVPVRFSGSGSGTSYSLTISRMEAEDAATYYCQQWNTYPLTFGAGTKLELK
notes: Mouse IgG, kappa light chain; also called clone #44; m44
B7: antibody 22 (antibody, V domains shown)
VH: QVTLKESGPGILQPSQTLSLTCSFSGFSLSTFGMGVGWIRQPSGKGLEWLAHIWWDDEKYYNSALKSRLTISKATSKNQVFLKIANVDTADTATYYCARISNYGSNYWYFNVWGTGTTVTVSS
VL: QVVLTQSPALMSASPGEKVTMTCSAGSSVSYMYWYQQKPGSSPRVLIYDTSNLASGVPARFTGSGSGTSYSLTISRMEAEDAATYYCQQWNSYPLTFGAGTKLELK
notes: Mouse IgG, kappa light chain; also called clone #22; m22

The assay has as its target T1, hiR2-FL-L539A-T7 (human iRhom2 full …). Description: FACS on cells of the row L539A, vs human iR2 wild type = 100%. The text has this:
In brief, immortalized MEF-DKO-hiR2-FL-G498A-T7, MEF-DKO-hiR2-FL-Q502R-T7, MEF-DKO-hiR2-FL-I509V-T7, MEF-DKO-hiR2-FL-Q512S-T7, MEF-DKO-hiR2-FL-R513E-T7, MEF-DKO-hiR2-FL-K514E-T7, MEF-DKO-hiR2-FL-D515E-T7, MEF-DKO-hiR2-FL-E518S-T7, MEF-DKO-hiR2-FL-T522V-T7, MEF-DKO-hiR2-FL-F523W-T7, MEF-DKO-hiR2-FL-Q527P-T7, MEF-DKO-hiR2-FL-D528I-T7, MEF-DKO-hiR2-FL-D529H-T7, MEF-DKO-hiR2-FL-T530P-T7, MEF-DKO-hiR2-FL-G531S-T7, MEF-DKO-hiR2-FL-P532A-T7, MEF-DKO-hiR2-FL-M534-T7, MEF-DKO-hiR2-FL-D535-T7, MEF-DKO-hiR2-FL-K536-T7, MEF-DKO-hiR2-FL-S537E-T7, MEF-DKO-hiR2-FL-D538L-T7, MEF-DKO-hiR2-FL-L539A-T7, MEF-DKO-hiR2-FL-Q541H-T7, MEF-DKO-hiR2-FL-T544Q-T7, MEF-DKO-hiR2-FL-S545F-T7, MEF-DKO-hiR2-FL-A547S-T7, MEF-DKO-hiR2-FL-T555V-T7, MEF-DKO-hiR2-FL-E557D-T7, MEF-DKO-hiR2-FL-A560S-T7 and MEF-DKO-hiR2-FL-S562E-T7 cells were harvested with 10 mM EDTA in PBS, washed and resuspended in FACS buffer (PBS, 3% FBS, 0.05% sodium azide), and seeded in Nunc U-bottom 96-well plates (Thermo Fisher Scientific, USA) at approximately 3×10⁵ cells per well. To pellet cells and remove supernatants, the plates were centrifuged at 1,500 rpm and 4° C. for 3 minutes. For primary staining, cells were resuspended in 100 μl per well of either FACS buffer alone (controls) or the purified antibodies 3, 5, 16, 22, 34, 42, 43, 44, 48, and 50 of the present disclosure at 3 μg/ml in FACS buffer and incubated on ice for 1 hour. Afterwards, plates were centrifuged at 1,500 rpm and 4° C. for 3 minutes and washed twice with 200 μl per well of FACS buffer. For secondary staining, cells were spun down and resuspended in 100 μl per well of PE-conjugated goat anti-mouse IgG F(ab′)2 detection fragment (Dianova, Germany) diluted 1:100 in FACS buffer. Protected from light, the cell suspensions were incubated on ice for 1 hour. Plates were then centrifuged at 1,500 rpm and 4° C. for 3 minutes and washed three times with 200 μl per well of FACS buffer. Finally, cells were resuspended in 150 μl per well of FACS buffer and analyzed using a BD Accuri™ C6 Plus flow cytometer (Becton Dickinson, Germany).
Take B1: the “grade of loss of binding vs wild type” value was 3 grade (3 => 95% loss of binding vs wild type).
Turning to B2, the “grade of loss of binding vs wild type” value was 3 grade (3 => 95% loss of binding vs wild type).
Under B3 stands 3 grade (3 => 95% loss of binding vs wild type); under B4, 3 grade (3 => 95% loss of binding vs wild type); under B5, 3 grade (3 => 95% loss of binding vs wild type).
Take B6: the “grade of loss of binding vs wild type” value was 3 grade (3 => 95% loss of binding vs wild type).
The value for B7 was 3 grade (3 => 95% loss of binding vs wild type).
